In patent US20170008955A1 (CNJ, published 2017):
Changes are numbered by the printed parent chain.

B1: hu5E3-IgG4 (antibody, V domains shown)
VH: QVQLQQSGPEVKKPGASVKISCKASGYIFTSYYIQWVIHAPGQGLEWIGWIYPGNVNTKYNEKFKGKATLTADKSSSTAYMELSSLTSEDTAVYFCARMDYEAHYWGQGTTVTVSS
VL: DIQMTQSPSSLSASVGDRVTITCRASQEISGYLTWLQQKPEGAIKRLIYAASTLDSGVPKRFSGSRSGSDYSLTISSLQPEDFATYNCLQYANYPRTFGGGTKLEIK
notes: human IgG4/kappa; also called humanized 5E3 IgG4
B2: murine monoclonal antibody 5E3 (antibody, V domains shown)
VH: B1 VH with V11L, K12V, K19R, A40R, E82Q, S85R, T91S, V112L
VL: B1 VL with V15L, D17E, T20S, I21L, E41D, A43T, Q79E, P80S, T85D
notes: mouse antibody of the 5E3 hybridoma; also called murine 5E3; m5E3
B3: rehu5E3-IgG4 (antibody, V domains shown)
VH: B1 VH with K12V, T87R, T91S, T111L
VL: B1 VL with V15L, I21L, G42K, S72T, T85D
notes: human IgG4/kappa; also called IgG4 rehu version

Target: T1, cSNK:BSA conjugate (bovine, head-to-tail cyclized; conjugated to BSA carrier)
T1 construct: also called BSA-cSNK
T1 sequence (P02769 25-607 limits assumed): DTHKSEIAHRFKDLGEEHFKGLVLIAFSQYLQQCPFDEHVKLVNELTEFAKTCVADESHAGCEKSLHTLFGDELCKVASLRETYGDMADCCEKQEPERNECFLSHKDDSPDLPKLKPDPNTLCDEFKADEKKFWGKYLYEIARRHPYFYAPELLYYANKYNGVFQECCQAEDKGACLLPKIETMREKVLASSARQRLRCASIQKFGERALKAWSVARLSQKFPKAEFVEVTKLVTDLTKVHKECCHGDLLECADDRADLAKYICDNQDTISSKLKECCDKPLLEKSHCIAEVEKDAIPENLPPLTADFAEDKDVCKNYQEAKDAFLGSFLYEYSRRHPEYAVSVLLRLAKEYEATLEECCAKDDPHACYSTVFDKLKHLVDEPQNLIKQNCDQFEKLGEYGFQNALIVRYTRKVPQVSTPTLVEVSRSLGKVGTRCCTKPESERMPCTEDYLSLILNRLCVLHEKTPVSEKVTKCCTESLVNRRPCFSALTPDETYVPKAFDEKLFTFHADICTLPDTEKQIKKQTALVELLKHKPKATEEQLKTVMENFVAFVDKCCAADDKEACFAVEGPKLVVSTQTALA
Experiment: BLI 2:1 fit, site 1; 25 nM row
Experimental: (§1) Biolayer interferometry (Octet […], ForteBio) was used to qualitatively/quantitatively assess the interactions between humanized versions of 5E3 and cSNK:BSA conjugate. […] MAbs were loaded onto sensors and then washed in PBST. Each sensor was associated with one of several cSNK:BSA standards (100 nM to 0 nM) and then washed in PBST. Data was processed statistically using ForteBio Data Analysis software to determine the strength of antigen-antibody binding (KD). For each mAb analyzed, a 2:1 model provided the “best fit”.

| Binder | Kd [nM] | koff [s⁻¹] | kon [M⁻¹ s⁻¹] |
| --- | --- | --- | --- |
| B1 | 0.633 | 0.00055 | 868000 |
| B2 | 0.33 | 0.000428 | 1.29e+06 |
| B3 | – | 0.000386 | 692000 |

Target: T1, cSNK:BSA conjugate
Experiment: BLI 2:1 fit, site 1; 50 nM row
Experimental: as §1

| Binder | Kd [nM] | koff [s⁻¹] | kon [M⁻¹ s⁻¹] |
| --- | --- | --- | --- |
| B1 | 0.633 | 0.00055 | 868000 |
| B2 | 0.33 | 0.000428 | 1.29e+06 |
| B3 | – | 0.000386 | 692000 |

Target: T1, cSNK:BSA conjugate
Experiment: BLI 2:1 fit, site 1; 100 nM row
Experimental: as §1

| Binder | Kd [nM] | koff [s⁻¹] | kon [M⁻¹ s⁻¹] |
| --- | --- | --- | --- |
| B1 | 0.633 | 0.00055 | 868000 |
| B2 | 0.33 | 0.000428 | 1.29e+06 |
| B3 | – | 0.000386 | 692000 |

Target: T1, cSNK:BSA conjugate
Experiment: BLI 2:1 fit, site 1; 12.5 nM row
Experimental: as §1

| Binder | Kd [nM] | koff [s⁻¹] | kon [M⁻¹ s⁻¹] |
| --- | --- | --- | --- |
| B1 | 0.633 | 0.00055 | 868000 |
| B2 | 0.33 | 0.000428 | 1.29e+06 |
| B3 | – | 0.000386 | 692000 |

Target: T1, cSNK:BSA conjugate
Experiment: BLI 2:1 fit, site 1; 3.13 nM row
Experimental: as §1

| Binder | Kd [nM] | koff [s⁻¹] | kon [M⁻¹ s⁻¹] |
| --- | --- | --- | --- |
| B1 | 0.633 | 0.00055 | 868000 |
| B2 | 0.33 | 0.000428 | 1.29e+06 |
| B3 | – | 0.000386 | 692000 |

Target: T1, cSNK:BSA conjugate
Experiment: BLI 2:1 fit, site 1; 6.25 nM row
Experimental: as §1

| Binder | Kd [nM] | koff [s⁻¹] | kon [M⁻¹ s⁻¹] |
| --- | --- | --- | --- |
| B1 | 0.633 | 0.00055 | 868000 |
| B2 | 0.33 | 0.000428 | 1.29e+06 |
| B3 | – | 0.000386 | 692000 |

Target: T1, cSNK:BSA conjugate
Experiment: BLI 2:1 fit, site 1; 1.56 nM row
Experimental: as §1

| Binder | Kd [nM] | koff [s⁻¹] | kon [M⁻¹ s⁻¹] |
| --- | --- | --- | --- |
| B1 | 0.633 | 0.00055 | 868000 |
| B2 | 0.33 | 0.000428 | 1.29e+06 |
| B3 | – | 0.000386 | 692000 |

Target: T1, cSNK:BSA conjugate
Experiment: BLI (Octet), 1:1 model, BSA-cSNK
Experimental: Biolayer interferometry (Octet Red92, ForteBio) was used to qualitatively/quantitatively assess the interactions between humanized 5E3 and Δ5E3 mAbs to the cSNK:BSA conjugate. […] MAbs were loaded onto sensors and then washed in PBST. Each sensor was associated with one of several cSNK:BSA standards (100 nM to 0 nM) and then washed in PBST. Data was processed statistically using ForteBio Data Analysis software to determine the strength of antigen-antibody binding (KD). For each mAb analyzed, a 1:1 model provided the “best fit”.

| Binder | Kd [nM] |
| --- | --- |
| B1 | 1.31 |

Target: T1, cSNK:BSA conjugate
Experiment: BLI 2:1 fit, site 2 (KD2); 50 nM row
Experimental: as §1

| Binder | Kd [nM] |
| --- | --- |
| B1 | 3.04 |
| B2 | 1.59 |
| B3 | 3.94 |

Target: T1, cSNK:BSA conjugate
Experiment: BLI 2:1 fit, site 2 (KD2); 25 nM row
Experimental: as §1

| Binder | Kd [nM] |
| --- | --- |
| B1 | 3.04 |
| B2 | 1.59 |
| B3 | 3.94 |

Target: T1, cSNK:BSA conjugate
Experiment: BLI 2:1 fit, site 2 (kon2); 50 nM row
Experimental: as §1

| Binder | kon [M⁻¹ s⁻¹] |
| --- | --- |
| B1 | 7.52e+06 |
| B2 | 1.42e+07 |
| B3 | 4.44e+06 |

Target: T1, cSNK:BSA conjugate
Experiment: BLI 2:1 fit, site 2 (KD2); 100 nM row
Experimental: as §1

| Binder | Kd [nM] |
| --- | --- |
| B1 | 3.04 |
| B2 | 1.59 |
| B3 | 3.94 |

Target: T1, cSNK:BSA conjugate
Experiment: BLI 2:1 fit, site 2 (KD2); 6.25 nM row
Experimental: as §1

| Binder | Kd [nM] |
| --- | --- |
| B1 | 3.04 |
| B2 | 1.59 |
| B3 | 3.94 |

Target: T1, cSNK:BSA conjugate
Experiment: BLI 2:1 fit, site 2 (kdis2); 50 nM row
Experimental: as §1

| Binder | koff [s⁻¹] |
| --- | --- |
| B1 | 0.0229 |
| B2 | 0.0226 |
| B3 | 0.0175 |

Target: T1, cSNK:BSA conjugate
Experiment: BLI 2:1 fit, site 2 (KD2); 1.56 nM row
Experimental: as §1

| Binder | Kd [nM] |
| --- | --- |
| B1 | 3.04 |
| B2 | 1.59 |
| B3 | 3.94 |

Target: T1, cSNK:BSA conjugate
Experiment: BLI 2:1 fit, site 2 (KD2); 12.5 nM row
Experimental: as §1

| Binder | Kd [nM] |
| --- | --- |
| B1 | 3.04 |
| B2 | 1.59 |
| B3 | 3.94 |

Target: T1, cSNK:BSA conjugate
Experiment: BLI 2:1 fit, site 2 (kon2); 3.13 nM row
Experimental: as §1

| Binder | kon [M⁻¹ s⁻¹] |
| --- | --- |
| B1 | 7.52e+06 |
| B2 | 1.42e+07 |
| B3 | 4.44e+06 |

Target: T1, cSNK:BSA conjugate
Experiment: BLI 2:1 fit, site 2 (kon2); 6.25 nM row
Experimental: as §1

| Binder | kon [M⁻¹ s⁻¹] |
| --- | --- |
| B1 | 7.52e+06 |
| B2 | 1.42e+07 |
| B3 | 4.44e+06 |

Target: T1, cSNK:BSA conjugate
Experiment: BLI 2:1 fit, site 2 (kon2); 1.56 nM row
Experimental: as §1

| Binder | kon [M⁻¹ s⁻¹] |
| --- | --- |
| B1 | 7.52e+06 |
| B2 | 1.42e+07 |
| B3 | 4.44e+06 |

Target: T1, cSNK:BSA conjugate
Experiment: BLI 2:1 fit, site 2 (kon2); 12.5 nM row
Experimental: as §1

| Binder | kon [M⁻¹ s⁻¹] |
| --- | --- |
| B1 | 7.52e+06 |
| B2 | 1.42e+07 |
| B3 | 4.44e+06 |

Target: T1, cSNK:BSA conjugate
Experiment: BLI 2:1 fit, site 2 (kdis2); 6.25 nM row
Experimental: as §1

| Binder | koff [s⁻¹] |
| --- | --- |
| B1 | 0.0229 |
| B2 | 0.0226 |
| B3 | 0.0175 |

Target: T1, cSNK:BSA conjugate
Experiment: BLI 2:1 fit, site 2 (kdis2); 1.56 nM row
Experimental: as §1

| Binder | koff [s⁻¹] |
| --- | --- |
| B1 | 0.0229 |
| B2 | 0.0226 |
| B3 | 0.0175 |

Target: T1, cSNK:BSA conjugate
Experiment: BLI (Octet RED96), 2:1 kinetics, KD1, summary table
Experimental: as §1
(§2) Table 7 summarizes the affinity constants of humanized 5E3 IgG1, IgG2 and IgG4 constructs. The KD ranges were determined using 2:1 kinetics of binding of analyte (BSA-cSNK) in solution to two different binding sites on the surface (immobilized bivalent, monospecific 5E3) in comparison to murine 5E3 using biolayer interferometry (Octet RED96).

| Binder | Kd [nM] |
| --- | --- |
| B1 | 0.633 |
| B2 | 0.33 |
| B3 | 0.557 |

Target: T1, cSNK:BSA conjugate
Experiment: BLI (Octet RED96), 2:1 kinetics, KD2, summary table
Experimental: as §1, §2

| Binder | Kd [nM] |
| --- | --- |
| B1 | 0.304 |
| B3 | 0.394 |
